IntAct's records for PubMed 24290140

B1: Four and a half LIM domains protein 1 (Mus musculus), P97447-2 (parent)
chain: MSEKFDCHYCRDPLQGKKYVQKDGRHCCLKCFDKFCANTCVDCRKPISADAKEVHYKNRYWHDNCFRCAKCLHPLASETFVSKDGKILCNKCATREDSPRCKGCFKAIVAGDQNVEYKGTVWHKDCFTCSNCKQVIGTGSFFPKGEDFYCVTCHETKFAKHCVKCNKGLVKAPVWWPMKDNPGTTTASTAKNAP

Variants of: B1
Settings: with suh_mouse Rbpj

effect of a mutation on the interaction	Variant
disrupting interaction strength	MSEKFDCHYCRDPLQGKKYVQKDGRHCCLKCFDKFCANTCVDCRKPISADAKEVHYKNRYWHDNCFRCAKCLHPLASETFVSKDGKILCNKCATREDSPRCKGCFKAIVAGDQNVEYKGTVWHKDCFTCSNCKQVIGTGSFFPKGEDFYCVTCHETKFAKHCVKCNKGLVKAPVAAPMKDNPGTTTASTAKNAP [W175A;W176A]
